± gives the standard deviation of the averaged measurements.
Key:
hTERT-HMEC = assay: percentage of EdU-negative (G0-arrested) nuclei per well, 72 h; higher = more G0 arrest; conditions: reference: sequence is the full UniProt precursor, the tested protein was the secreted form or ectodomain
MCF7 = assay: as above; conditions: reference: sequence is the full UniProt precursor, the tested protein was the secreted form or ectodomain
[1] = protein concentration 0.0131429 µM
[2] = protein concentration 0.131429 µM
[3] = protein concentration 0.03125 µM
[4] = protein concentration 0.3125 µM
[5] = protein concentration 0.0225 µM
[6] = protein concentration 0.0334286 µM
[7] = protein concentration 0.334286 µM
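Also: secreted proteins added to cultured cells, EdU pulse at the end, nuclei found by Hoechst imaging, EdU status from nuclear versus surrounding ring intensity ratio, PBS as neutral control.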

Sequence: MAPPLRPLARLRPPGMLLRALLLLLLLSPLPGVWCFSELSFVKEPQDVTVTRKDPVVLDCQAHGEVPIKVTWLKNGAKMSENKRIEVLSNGSLYISEVEGRRGEQSDEGFYQCLAMNKYGAILSQKAHLALSTISAFEVQPISTEVHEGGVARFACKISSHPPAVITWEFNRTTLPMTMDRITALPTGVLQIYDVSQRDSGNYRCIAATVAHRRKSMEASLTVIPAKESKSFHTPTIIAGPQNITTSLHQTVVLECMATGNPKPIISWSRLDHKSIDVFNTRVLGNGNLMISDVRLQHAGVYVCRATTPGTRNFTVAMATLTVLAPPSFVEWPESLTRPRAGTARFVCQAEGIPSPKMSWLKNGRKIHSNGRIKMYNSKLVINQIIPEDDAIYQCMAENSQGSILSRARLTVVMSEDRPSAPYNVHAETMSSSAILLAWERPLYNSDKVIAYSVHYMKAEGLNNEEYQVVIGNDTTHYIIDDLEPASNYTFYIVAYMPMGASQMSDHVTQNTLEDVPLRPPEISLTSRSPTDILISWLPIPAKYRRGQVVLYRLSFRLSTENSIQVLELPGTTHEYLLEGLKPDSVYLVRITAATRVGLGESSVWTSHRTPKATSVKAPKSPELHLEPLNCTTISVRWQQDVEDTAAIQGYKLYYKEEGQQENGPIFLDTKDLLYTLSGLDPRRKYHVRLLAYNNIDDGYQADQTVSTPGCVSVRDRMVPPPPPPHHLYAKANTSSSIFLHWRRPAFTAAQIINYTIRCNPVGLQNASLVLYLQTSETHMLVQGLEPNTKYEFAVRLHVDQLSSPWSPVVYHSTLPEAPAGPPVGVKVTLIEDDTALVSWKPPDGPETVVTRYTILYASRKAWIAGEWQVLHREGAITMALLENLVAGNVYIVKISASNEVGEGPFSNSVELAVLPKETSESNQRPKRLDSADAKVYSGYYHLDQKSMTGIAVGVGIALTCILICVLILIYRSKARKSSASKTAQNGTQQLPRTSASLASGNEVGKNLEGAVGNEESLMPMIMPNSFIDAKGGTDLIINSYGPIIKNNSKKKWFFFQDSKKIQVEQPQRRFTPAVCFYQPGTTVLISDEDSPSSPGQTTSFSRPFGVAADTEHSANSEGSHETGDSGRFSHESNDEIHLSSVISTTPPNL [Q2VWP7]
- percentage of EdU-negative (hTERT-HMEC; [1]): 4.73 ± 0.2%
- percentage of EdU-negative (hTERT-HMEC; [2]): 5.16 ± 0.39%
- percentage of EdU-negative (MCF7; [1]): 25.8 ± 0.61%
- percentage of EdU-negative (MCF7; [2]): 25.2 ± 1.5%

Sequence: MANRGPAYGLSREVQQKIEKQYDADLEQILIQWITTQCRKDVGRPQPGRENFQNWLKDGTVLCELINALYPEGQAPVKKIQASTMAFKQMEQISQFLQAAERYGINTTDIFQTVDLWEGKNMACVQRTLMNLGGLAVARDDGLFSGDPNWFPKKSKENPRNFSDNQLQEGKNVIGLQMGTNRGASQAGMTGYGMPRQIL
- percentage of EdU-negative (hTERT-HMEC; [3]): 6.1 ± 1.2%
- percentage of EdU-negative (hTERT-HMEC; [4]): 5.189 ± 0.039%
- percentage of EdU-negative (MCF7; [3]): 25.9 ± 1.3%
- percentage of EdU-negative (MCF7; [4]): 25.2 ± 2.8%

Sequence: MLSSVVFWGLIALIGTSRGSYPFSHSMKPHLHPRLYHGCYGDIMTMKTSGATCDANSVMNCGIRGSEMFAEMDLRAIKPYQTLIKEVGQRHCVDPAVIAAIISRESHGGSVLQDGWDHRGLKFGLMQLDKQTYHPVGAWDSKEHLSQATGILTERIKAIQKKFPTWSVAQHLKGGLSAFKSGIEAIATPSDIDNDFVNDIIARAKFYKRQSF [Q86SG7]
- percentage of EdU-negative (hTERT-HMEC; [5]): 4.33 ± 0.76%
- percentage of EdU-negative (hTERT-HMEC; protein concentration 0.225 µM): 5.09 ± 0.33%
- percentage of EdU-negative (MCF7; [5]): 27.3 ± 1.4%
- percentage of EdU-negative (MCF7; protein concentration 0.225 µM): 25.6 ± 2.5%

Sequence: MEEGQYSEIEELPRRRCCRRGTQIVLLGLVTAALWAGLLTLLLLWHWDTTQSLKQLEERAARNVSQVSKNLESHHGDQMAQKSQSTQISQELEELRAEQQRLKSQDLELSWNLNGLQADLSSFKSQELNERNEASDLLERLREEVTKLRMELQVSSGFVCNTCPEKWINFQRKCYYFGKGTKQWVHARYACDDMEGQLVSIHSPEEQDFLTKHASHTGSWIGLRNLDLKGEFIWVDGSHVDYSNWAPGEPTSRSQGEDCVMMRGSGRWNDAFCDRKLGAWVCDRLATCTPPASEGSAESMGPDSRPDPDGRLPTPSAPLHS
- percentage of EdU-negative (hTERT-HMEC; protein concentration 0.005 µM): 5.26 ± 0.5%
- percentage of EdU-negative (hTERT-HMEC; protein concentration 0.05 µM): 5.97 ± 0.12%
- percentage of EdU-negative (MCF7; protein concentration 0.005 µM): 23.6 ± 0.92%
- percentage of EdU-negative (MCF7; protein concentration 0.05 µM): 23.9 ± 0.99%

Sequence: MKLDMTGDCTPVLVLMAAVLTVTGAVPVARLHGALPDARGCHIAQFKSLSPQELQAFKRAKDALEESLLLKDCRCHSRLFPRTWDLRQLQVRERPMALEAELALTLKVLEATADTDPALVDVLDQPLHTLHHILSQFRACIQPQPTAGPRTRGRLHHWLYRLQEAPKKESPGCLEASVTFNLFRLLTRDLNCVASGDLCV [Q8IZJ0]
- percentage of EdU-negative (hTERT-HMEC; [6]): 5.29 ± 0.59%
- percentage of EdU-negative (hTERT-HMEC; [7]): 9.88 ± 1.6%
- percentage of EdU-negative (MCF7; [6]): 22.9 ± 3.6%
- percentage of EdU-negative (MCF7; [7]): 25.9 ± 4.6%

Sequence: MGPLSAPPCTEHIKWKGLLLTALLLNFWNLPTTAQVMIEAQPPKVSEGKDVLLLVHNLPQNLTGYIWYKGQIRDLYHYITSYVVDGQIIIYGPAYSGRETVYSNASLLIQNVTREDAGSYTLHIIKRGDGTRGVTGYFTFTLYLETPKPSISSSNLNPREAMETVILTCNPETPDASYLWWMNGQSLPMTHRMQLSETNRTLFLFGVTKYTAGPYECEIWNSGSASRSDPVTLNLLHGPDLPRIFPSVTSYYSGENLDLSCFANSNPPAQYSWTINGKFQLSGQKLFIPQITPKHNGLYACSARNSATGEESSTSLTIRVIAPPGLGTFAFNNPT [Q9UQ72]
- percentage of EdU-negative (hTERT-HMEC; [3]): 4.83 ± 0.7%
- percentage of EdU-negative (hTERT-HMEC; [4]): 5.46 ± 1.1%
- percentage of EdU-negative (MCF7; [3]): 24.9 ± 4.1%
- percentage of EdU-negative (MCF7; [4]): 26.7 ± 1.1%

— the supplement of paper PMC11316812
